Data from patent publication US20140242080A1 (Hoffmann-La Roche, published 2014).

T1: hu-MCSP(D3 domain)-avi-his (human, UniProt Q6UVK1 1582-2224)
T1 construct: Recombinant D3 domain with avi and his tags; also called human MCSP(D3 domain)-avi-his; Human MCSP D3
T1 sequence: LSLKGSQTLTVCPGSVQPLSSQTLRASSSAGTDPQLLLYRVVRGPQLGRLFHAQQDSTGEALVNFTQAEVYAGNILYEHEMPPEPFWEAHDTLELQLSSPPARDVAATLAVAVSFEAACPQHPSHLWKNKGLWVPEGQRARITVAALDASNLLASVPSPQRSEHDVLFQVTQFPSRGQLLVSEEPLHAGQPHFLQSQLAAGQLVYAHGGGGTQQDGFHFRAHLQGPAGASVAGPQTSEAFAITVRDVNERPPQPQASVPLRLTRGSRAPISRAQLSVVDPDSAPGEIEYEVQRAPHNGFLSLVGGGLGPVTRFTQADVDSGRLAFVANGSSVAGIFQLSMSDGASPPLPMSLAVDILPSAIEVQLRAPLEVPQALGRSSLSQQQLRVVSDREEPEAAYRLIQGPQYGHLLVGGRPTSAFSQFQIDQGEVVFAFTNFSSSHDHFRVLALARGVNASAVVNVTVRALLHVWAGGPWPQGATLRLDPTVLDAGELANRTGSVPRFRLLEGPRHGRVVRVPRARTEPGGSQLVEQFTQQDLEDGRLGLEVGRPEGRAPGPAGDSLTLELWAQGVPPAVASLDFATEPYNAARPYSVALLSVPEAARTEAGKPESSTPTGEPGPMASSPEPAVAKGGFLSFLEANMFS

T2: cynomolgus MCSP D3 (cynomolgus, UniProt Q6UVK1 1582-2224 (human entry), limits assumed)
T2 construct: also called Cyno MCSP; cynomolgus homologue
T2 chain: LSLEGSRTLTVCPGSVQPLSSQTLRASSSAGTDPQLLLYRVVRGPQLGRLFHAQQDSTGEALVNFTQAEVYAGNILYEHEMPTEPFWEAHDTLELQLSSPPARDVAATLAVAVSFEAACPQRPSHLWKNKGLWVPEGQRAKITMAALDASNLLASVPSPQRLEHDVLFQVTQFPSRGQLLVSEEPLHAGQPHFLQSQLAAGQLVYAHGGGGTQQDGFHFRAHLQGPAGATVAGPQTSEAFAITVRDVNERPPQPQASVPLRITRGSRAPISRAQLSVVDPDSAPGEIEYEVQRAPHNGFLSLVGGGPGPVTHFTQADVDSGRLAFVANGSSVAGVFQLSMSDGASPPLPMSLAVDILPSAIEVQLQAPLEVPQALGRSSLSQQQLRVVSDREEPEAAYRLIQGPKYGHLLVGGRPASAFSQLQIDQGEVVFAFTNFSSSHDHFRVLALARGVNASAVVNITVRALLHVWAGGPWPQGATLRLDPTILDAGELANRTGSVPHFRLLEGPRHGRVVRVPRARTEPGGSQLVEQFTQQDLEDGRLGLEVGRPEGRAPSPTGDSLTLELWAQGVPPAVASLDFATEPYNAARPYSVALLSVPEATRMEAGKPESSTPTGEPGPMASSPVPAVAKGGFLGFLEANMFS

T3: human CEA expressed on tumor cells (LS-174T, A549-huCEA, MKN-45, MC38-huCEA, HPAFII, BxPC-3, ASPC-1) (human, UniProt P06731 35-685)
T3 sequence (looked up): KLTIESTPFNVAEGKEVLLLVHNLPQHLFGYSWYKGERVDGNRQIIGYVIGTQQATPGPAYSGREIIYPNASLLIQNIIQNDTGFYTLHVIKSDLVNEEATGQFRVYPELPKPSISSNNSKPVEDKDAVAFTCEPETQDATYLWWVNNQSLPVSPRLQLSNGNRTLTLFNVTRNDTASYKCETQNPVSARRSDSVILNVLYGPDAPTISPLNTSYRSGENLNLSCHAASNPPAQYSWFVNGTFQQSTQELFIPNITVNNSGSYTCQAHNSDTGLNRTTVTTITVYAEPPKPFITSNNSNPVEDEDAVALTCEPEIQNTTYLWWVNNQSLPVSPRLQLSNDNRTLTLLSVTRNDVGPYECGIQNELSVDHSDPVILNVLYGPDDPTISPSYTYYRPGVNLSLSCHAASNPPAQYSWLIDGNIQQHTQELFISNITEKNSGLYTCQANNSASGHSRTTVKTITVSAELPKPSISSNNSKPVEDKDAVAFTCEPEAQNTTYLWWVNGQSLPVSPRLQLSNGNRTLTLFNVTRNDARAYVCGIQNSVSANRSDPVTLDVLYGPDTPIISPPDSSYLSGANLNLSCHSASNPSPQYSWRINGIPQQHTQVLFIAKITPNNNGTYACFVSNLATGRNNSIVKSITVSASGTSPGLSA

B1: Parental M4-3/ML2 IgG (antibody, V domains shown)
VH: QVQLQESGPGLVKPSQTLSLTCTVSGGSITSGYYWNWIRQHPGKGLEWIGYITYDGSNNYNPSLKSRVTISRDTSKNQFSLKLSSVTAADTAVYYCADFDYWGQGTLVTVSS
VL: DIQMTQSPSSLSASVGDRVTITCRASQGIRNYLNWYQQKPGKAPKLLIYYTSSLHSGVPSRFSGSGSGTDFTLTISSLQPEDFATYYCQQYSKLPWTFGQGTKVEIK
notes: Human IgG1 format, from mammalian production; also called M4-3 ML2 (parental); anti-MCSP antibody M4-3/ML2
B2: M4-3(C1)/ML2(C5) IgG (antibody, V domains shown)
VH: QVQLQESGPGLVKPSQTLSLTCTVSGGSITSGYYWNWIRQHPGKGLEWIGYITFDGSNNYNPSLKSRVTISRDTSKNQFSLKLSSVTAADTAVYYCADFDYWGQGTLVTVSS
VL: DIQMTQSPSSLSASVGDRVTITCRASRGIREYLNWYQQKPGKAPKLLIYYTGSLHSGVPSRFSGSGSGTDFTLTISSLQPEDFATYYCQQYSELPWTFGQGTKVEIK
notes: Human IgG1
B3: M4-3(C1)/ML2(E10) IgG (antibody, V domains shown)
VH: QVQLQESGPGLVKPSQTLSLTCTVSGGSITSGYYWNWIRQHPGKGLEWIGYITFDGSNNYNPSLKSRVTISRDTSKNQFSLKLSSVTAADTAVYYCADFDYWGQGTLVTVSS
VL: DIQMTQSPSSLSASVGDRVTITCRASYGIRGYLNWYQQKPGKAPKLLIYYTSSLHSGVPSRFSGSGSGTDFTLTISSLQPEDFATYHCQQYSKLPWTFGQGTKVEIK
notes: Human IgG1
B4: 1 + 1 IgG-Crossfab light chain fusion (CH1A1A/V9) (anti-CEA/anti-huCD3) (bispecific antibody)
chain 1: DIQMTQSPSSLSASVGDRVTITCRASQDIRNYLNWYQQKPGKAPKLLIYYTSRLESGVPSRFSGSGSGTDYTLTISSLQPEDFATYYCQQGNTLPWTFGQGTKVEIKSSASTKGPSVFPLAPSSKSTSGGTAALGCLVKDYFPEPVTVSWNSGALTSGVHTFPAVLQSSGLYSLSSVVTVPSSSLGTQTYICNVNHKPSNTKVDKKVEPKSC
chain 2: DIQMTQSPSSLSASVGDRVTITCKASAAVGTYVAWYQQKPGKAPKLLIYSASYRKRGVPSRFSGSGSGTDFTLTISSLQPEDFATYYCHQYYTYPLFTFGQGTKLEIKRTVAAPSVFIFPPSDEQLKSGTASVVCLLNNFYPREAKVQWKVDNALQSGNSQESVTEQDSKDSTYSLSSTLTLSKADYEKHKVYACEVTHQGLSSPVTKSFNRGECGGGGSGGGGSGGGGSGGGGSEVQLVESGGGLVQPGGSLRLSCAASGYSFTGYTMNWVRQAPGKGLEWVALINPYKGVSTYNQKFKDRFTISVDKSKNTAYLQMNSLRAEDTAVYYCARSGYYGDSDWYFDVWGQGTLVTVSSASVAAPSVFIFPPSDEQLKSGTASVVCLLNNFYPREAKVQWKVDNALQSGNSQESVTEQDSKDSTYSLSSTLTLSKADYEKHKVYACEVTHQGLSSPVTKSFNRGEC
chain 3: not shown
chain 4: DKTHTCPPCPAPEAAGGPSVFLFPPKPKDTLMISRTPEVTCVVVDVSHEDPEVKFNWYVDGVEVHNAKTKPREEQYNSTYRVVSVLTVLHQDWLNGKEYKCKVSNKALGAPIEKTISKAKGQPREPQVCTLPPSRDELTKNQVSLSCAVKGFYPSDIAVEWESNGQPENNYKTTPPVLDSDGSFFLVSKLTVDKSRWQQGNVFSCSVMHEALHNHYTQKSLSLSPGK
notes: also called “1+1 IgG Crossfab light chain (LC) fusion”

Tests used:
[1] = target: T1, hu-MCSP(D3 domain)-avi-his; assay: SPR Biacore T200, 25 C; avidity: MCSP D3 captured via anti-Penta His, IgG as analyte
Experimental: (§1) For analyzing the avidity of the interaction of different anti-MCSP IgGs to human and cynomolgus MCSP D3 direct coupling of around 9,500 resonance units (RU) of the anti-Penta His antibody (Qiagen) was performed on a CM5 chip at pH 5.0 using the standard amine coupling kit (Biacore, Freiburg/Germany). Antigens were captured for 60 s at 30 nM with 10 μl/min respectively. IgGs were passed at a concentration of 0.0064-100 nM with a flowrate of 30 μl/min through the flow cells over 280 s. The dissociation was monitored for 180 s. Bulk refractive index differences were corrected for by subtracting the response obtained on reference flow cell. […] For affinity measurements IgGs were captured on a CM5 sensorchip surface with immobilized anti human Fc. Capture IgG was coupled to the sensorchip surface by direct immobilization of around 9,500 resonance units (RU) at pH 5.0 using the standard amine coupling kit (Biacore, Freiburg/Germany). IgGs are captured for 25 s at 10 nM with 30 μl/min. Human and cynomolgus MCSP D3 were passed at a concentration of 2-500 nM with a flowrate of 30 μl/min through the flow cells over 120 s. The dissociation was monitored for 60 s. […] Bulk refractive index differences were corrected for by subtracting the response obtained on reference flow cell.

[2] = target: T2, cynomolgus MCSP D3; assay: as above
Experimental: as §1

[3] = target: T1, hu-MCSP(D3 domain)-avi-his; assay: SPR Biacore T200, 25 C; affinity: IgG captured via anti-human Fc, MCSP D3 as analyte
Experimental: as §1

[4] = target: T2, cynomolgus MCSP D3; assay: as above
Experimental: as §1

[5] = target: T1, hu-MCSP(D3 domain)-avi-his; assay: SPR ProteOn XPR36, 25 C; IgG captured via anti-human F(ab')2, MCSP D3 as analyte
[6] = target: T2, cynomolgus MCSP D3; assay: as above
[7] = target: T1, hu-MCSP(D3 domain)-avi-his; assay: ratio of ProteOn IgG KD, parent M4-3/ML2 against variant
[8] = target: T2, cynomolgus MCSP D3; assay: as above
[9] = target: T4, human CD3 expressed on Jurkat cells (human, UniProt P07766 23-207); assay: flow cytometry on Jurkat cells
T4 construct: CD3 complex on Jurkat T cells; also called CD3 on Jurkat cells; huCD3
Experimental: Binding of the different bispecific constructs to CD3 on Jurkat cells (ATCC #TIB-152), and the respective tumor antigen on target cells, was determined by FACS. Briefly, cells were harvested, counted and checked for viability. 0.15-0.2 million cells per well (in PBS containing 0.1% BSA; 90 μl) were plated in a round-bottom 96-well plate and incubated with the indicated concentration of the bispecific constructs and corresponding IgG controls (10 μl) for 30 min at 4° C. […] After the incubation, cells were centrifuged (5 min, 350×g), washed with 150 μl PBS containing 0.1% BSA, resuspended and incubated for further 30 min at 4° C. with 12 μl/well of a FITC- or PE-conjugated secondary antibody. Bound constructs were detected using a FACSCantoII (Software FACS Diva). The “(scFv)₂” molecule was detected using a FITC-conjugated anti-His antibody (Lucerna, #RHIS-45F-Z). For all other molecules, a FITC- or PE-conjugated AffiniPure F(ab′)2 Fragment goat anti-human IgG Fcγ Fragment Specific (Jackson Immuno Research Lab #109-096-098/working solution 1:20, or #109-116-170/working solution 1:80, respectively) was used. Cells were washed by addition of 120 μl/well PBS containing 0.1% BSA and centrifugation at 350×g for 5 min. A second washing step was performed with 150 μl/well PBS containing 0.1% BSA. […] EC50 values were calculated using the GraphPad Prism software.
As a control, the equivalent maximum concentration of the corresponding IgGs and the background staining due to the labeled 2ndary antibody (goat anti-human FITC-conjugated AffiniPure F(ab′)2 Fragment, FcγFragment-specific, Jackson Immuno Research Lab #109-096-098) were assessed as well.

[10] = target: T3, human CEA expressed on tumor cells …; assay: cell-based or functional assay

T4 sequence (P07766 23-207 limits assumed): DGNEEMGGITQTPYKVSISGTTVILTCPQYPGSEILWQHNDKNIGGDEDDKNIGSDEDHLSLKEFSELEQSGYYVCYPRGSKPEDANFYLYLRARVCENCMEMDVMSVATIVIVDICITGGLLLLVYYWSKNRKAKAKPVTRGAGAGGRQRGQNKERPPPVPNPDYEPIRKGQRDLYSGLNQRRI

Row | Binder | Kd [1] | Kd [2] | Kd [3] | Kd [4] | Kd [5] | Kd [6] | Fold increase over parent [7] | Fold increase over parent [8] | binding result [9] | EC50 of T cell-mediated killing (LDH release), LS-174T cells, human PBMCs E:T 10:1, 28 h [10] | EC50 of T cell-mediated killing (LDH release), MC38-huCEA cells, human PBMCs E:T 10:1, 24 h [10] | EC50 of T cell-mediated killing (LDH release), MKN-45 cells, human PBMCs E:T 10:1, 28 h [10]
1 | B1 | 0.009 nM | 0.0123 nM | 8.6 nM | 11.4 nM | 2 nM | 2 nM |  |  |  |  |  | 
2 | B2 | 0.0046 nM | 0.0044 nM | 1.8 nM | 1.3 nM | 0.2 nM | 0.3 nM | 10 fold | 6.7 fold |  |  |  | 
3 | B3 | 0.0063 nM | 0.0044 nM | 4.6 nM | 3.8 nM | 0.5 nM | 0.6 nM | 4 fold | 3.3 fold |  |  |  | 
4 | B4 |  |  |  |  |  |  |  |  | binds | 1.56 nM | ~3.2 nM | 0.213 nM
